Data taken from publication PMC6225287 (2018).

Target: FGF-2 (Homo sapiens, UniProt P09038)
Assay: SPR

Sequence of FGF-2 (P09038 143-288): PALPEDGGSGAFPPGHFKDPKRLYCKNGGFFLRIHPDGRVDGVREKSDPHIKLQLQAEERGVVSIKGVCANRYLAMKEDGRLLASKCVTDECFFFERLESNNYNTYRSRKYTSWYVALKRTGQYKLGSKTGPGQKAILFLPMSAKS

- Kd: 28 µM
Binder: QEDYDKDGIGDACDD [DD15 peptide (thrombospondin-1) type III repeats]
